From patent US20240180966A1 (YEDA RESEARCH AND DEVELOPMENT, published 2024) come the findings set out here.

The target of assay [1] is T1, NRAS Q61R (RAS.Q61R) peptide on HLA-A*01:01 (human).
T1 peptide: ILDTAGREEY
The experiment in a line: activation reporter or marker.

The target of assay [2] is T2, NRAS Q61K (RAS.Q61K; the sequence is shared by NRAS, KRAS and HRAS) peptide on HLA-A*01:01 (human).
T2 peptide: ILDTAGKEEY
The experiment in a line: multimer staining.

Assay [3] has as its target T3, NRAS wild-type (Q61) peptide on HLA-A*01:01 (human).
T3 peptide: ILDTAGQEEY
The experiment in a line: cytokine release.

In assay [4] the target is T4, HLA-A*01:01 (human).
T4 construct: whole, on cells; also called HLA allele A*01:01
The experiment in a line: HLA-peptidomics (W6/32 immunoaffinity, LC-MS/MS) of HLA-A*01:01 mono-allelic 721.221 cells with a RAS.Q61K minigene.

Assay [5] deals with T4, HLA-A*01:01. The experiment in a line: HLA-peptidomics (targeted MS) of HLA-A*01:01 mono-allelic 721.221 cells with a RAS.Q61R minigene.

B1: N17.3.2 (TCR)
alpha TRAV19 TRAJ17 CDR3: CALSESGDAAGNKLTF
beta TRBV6-1 TRBJ1-1 CDR3: CAEGENTEAFF
For B1, the binding result in assay [1] is listed as “no recognition”; in assay [2], “recognises”; in assay [3] it was “no recognition”.

For the molecule ILDTAGKEEY (also called RAS.Q61K-derived neopeptide) [ILDTAGKEEY (SEQ ID NO: 1) neopeptide], the binding result in assay [4] is “binds”.

For the molecule ILDTAGREEY (also called RAS.Q61R-derived neopeptide) [ILDTAGREEY (SEQ ID NO: 34) neopeptide], the binding result in assay [5] is “binds”.

B2: N17.2 (TCR)
alpha TRAV5 TRAJ9 CDR3: CAESSGGGFKTIF
beta TRBV6-6 TRBJ2-7 CDR3: CASSTPGPSAYEQYF
On to B2, for which the values for the binding result in assay [1], in assay [2] and in assay [3] were “no recognition”, “recognises” and “no recognition”, respectively.

B3: N135.1 (TCR)
alpha TRAV19 TRAJ39 CDR3: CALSESHNNAGNMLTF
beta TRBV6-1 TRBJ1-1 CDR3: CAASQNTEAFF
For the molecule B3, the binding result in assay [1] was “no recognition”; in assay [2], “recognises”; in assay [3] it was “no recognition”.

B4: NH2 (TCR)
alpha TRAV19 TRAJ39 CDR3: CALSETINNAGNMLTF
beta TRBV6-1 TRBJ1-1 CDR3: CAASQNTEAFF
Take B4: the binding result is reported as “recognises” in assay [2] and “no recognition” in assay [3].
